According to article PMC8776730 (Nature Communications, 2022):

Columns and labels:
[1] = Critical assembly concentration (CAC) by pyrene fluorescence probe; format: physicochemical
Text: In order to study the molecular design and their assembly behavior, we modular designed and synthesized seven molecules (Table 1), which respectively were BIVA probe: M1 (mPEG-GPAKLVFFGC(IR783)GRGD); the non- FAP-α tailoring molecule: M2 (mPEG-AGGKLVFFGC(IR783)GRGD) scrambled response tailoring motif of Gly-Pro-Ala with Ala-Gly-Gly; the non-labeling molecule of M1: M3 (mPEG-GPAKLVFFGCGRGD) removed IR783 labeling; FAP-α tailoring residue of M1: R-M1 (AKLVFFGC(IR783)GRGD); the non-targeting molecule: M4 (mPEG-GPAKLVFFGC(IR783)GDTG) scrambled targeting tailoring motif of Arg-Gly-Asp with Asp-Thr-Gly; the non-labeling molecule of M2: M5 (mPEG-AGGKLVFFGCGRGD) removed IR783 labeling; FAP-α tailoring residue of M3: R-M3 (AKLVFFGCGRGD). All the synthesized procedure (Supplementary Fig. 1) and characterizations of these seven molecules can be found in SI (Supplementary Figs. 2–8). […] Without IR783 labeling, molecules of M3 and M5 decreased the CAC value in solution relative to M1 and M2, which could be attributed to the proximity of the steric hindrance of hydrophilic IR783 to the self-assembly motif (Supplementary Fig. 9). […] The CAC was quantitatively calculated by fluorescence probe of pyrene.

[2] = biological target: T1, FAP-α (Homo sapiens, UniProt Q12884); assay: FAP-α tailoring (cleavage) followed by HPLC and MALDI-TOF; format: biochemical; conditions: 100 μM molecule, FAP-α 50 μM, 12 h; buffer 50 mM Tris, 1 M NaCl, 1 mg/mL BSA, pH 7.5; HPLC (M3, M5), MALDI-TOF (M1)
T1 construct: purchased R&D SYSTEM
T1 sequence (Q12884 1-760): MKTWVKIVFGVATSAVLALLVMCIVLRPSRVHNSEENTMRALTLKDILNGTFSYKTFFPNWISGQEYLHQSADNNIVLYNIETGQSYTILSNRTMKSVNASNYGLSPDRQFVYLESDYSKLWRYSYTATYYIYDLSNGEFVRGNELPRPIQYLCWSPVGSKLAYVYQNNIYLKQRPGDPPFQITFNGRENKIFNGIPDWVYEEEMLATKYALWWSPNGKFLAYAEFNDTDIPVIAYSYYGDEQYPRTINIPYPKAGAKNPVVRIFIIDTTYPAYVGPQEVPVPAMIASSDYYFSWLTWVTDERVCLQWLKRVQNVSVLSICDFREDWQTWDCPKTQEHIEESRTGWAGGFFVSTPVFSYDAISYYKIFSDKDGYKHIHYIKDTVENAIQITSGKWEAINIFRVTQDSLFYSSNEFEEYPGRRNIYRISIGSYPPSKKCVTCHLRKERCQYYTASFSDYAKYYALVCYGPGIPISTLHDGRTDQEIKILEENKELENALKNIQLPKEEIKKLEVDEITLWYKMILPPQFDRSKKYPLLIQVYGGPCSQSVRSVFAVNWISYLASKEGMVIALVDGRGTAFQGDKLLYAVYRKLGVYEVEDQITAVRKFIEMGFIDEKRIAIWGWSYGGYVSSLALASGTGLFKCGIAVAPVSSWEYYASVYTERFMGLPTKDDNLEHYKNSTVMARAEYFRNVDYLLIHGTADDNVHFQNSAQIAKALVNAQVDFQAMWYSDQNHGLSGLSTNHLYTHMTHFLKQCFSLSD
Text: To further investigate the FAP-α specific tailoring and BIVA probe assembly in situ simultaneously (Fig. 4a), the high-performance liquid chromatography (HPLC), TEM, and matrix-assisted laser desorption/ionization time-of-flight (MALDI-TOF) mass spectrometry were applied for the characterizations purpose. To specify the cutting of the response tailoring motif (Gly-Pro-Ala), pre-synthesized molecules of R-M3, M3 and M5 were set as controls. […] Comparing the residues peaks with R-M3, the primary sharp peak at 27.4 min can be identified by the R-M3 control (27.6 min). […] The retention time of M1 after co-incubation with inactivated FAP-α was similar to that of M3 (Supplementary Fig. 14). After hydrolyzed by FAP-α, the residues of M1 in situ assembled into nanofibers structures under the complex buffer (Fig. 4c and Supplementary Fig. 15). […] In order to further evaluate the specificity of M1 for different enzymes, including FAP-α, pepsin, pancreatin, lipase, and BSA, we used ThT (Thioflavin T) as a detection probe (Fig. 4e).
Fig. 4 The FAP-α specific molecule tailoring and inducing in situ assembly. a The illustration the working mechanism of BIVA probe based on FAP-α catalytic hydrolysis. b HPLC curves of M3 and M5 after incubation with FAP-α in buffer. R-M3, M3 and M5 were synthesized controls. The TEM image (c), and the MALDI-TOF (d), results of M1 after tailoring by FAP-α in buffer, the red arrows represent the assembled fibrils of M1 after incubation with FAP-α. e The enzyme specificity of M1 in buffer. Buffer: 50 mM Tris, 1 M NaCl, 1 mg/mL, BSA, pH 7.5; Concentration of M1 and M3: 100 μM; Concentration of FAP-α: 50 μM; incubation time: 12 h. […]

Substance	pyrene I1/I3 ([1]; conc 100 μM)	pyrene I1/I3 ([1]; conc 200 μM)	pyrene I1/I3 ([1]; conc 300 μM)	pyrene I1/I3 ([1]; conc 400 μM)	pyrene I1/I3 ([1]; conc 500 μM)	pyrene I1/I3 ([1]; conc 600 μM)	pyrene I1/I3 ([1]; conc 700 μM)	pyrene I1/I3 ([1]; conc 800 μM)	pyrene I1/I3 ([1]; conc 900 μM)	tailoring (cleavage) by FAP-α [2]	Critical assembly concentration (CAC) ([1]; aqueous solution, analyzed based on pyrene fluorescence)
mPEG-GPAKLVFFGCGRGD [M3, the non-labeling molecule of M1 (no IR783)]	1.163	1.158	1.141	1.131	1.152	1.067	1.052	1.029	0.978	totally cleaved	
mPEG-GPAKLVFFGC(IR783)GRGD [M1]										cut into two parts of R-M1 and PEG residue	>500 µM
